# In patent US6528618B1, “Anti-inflammatory peptides derived from C-reactive protein” (Yeda Research and Development Co. Ltd., priority 1997, dated 2003):
# Where two headings read alike, the source gives them in different places. Where a SMILES comes first, the peptide text is derived from it.
# T1: human leukocyte elastase (hLE) (Homo sapiens, UniProt P08246)
# T1 construct: Neutrophils (1.4 billion) were isolated from whole blood obtained from a single healthy laboratory donor; from tissue; host or cells: neutrophils from whole blood of a single healthy donor
# T1 sequence (P08246 30-247 limits assumed): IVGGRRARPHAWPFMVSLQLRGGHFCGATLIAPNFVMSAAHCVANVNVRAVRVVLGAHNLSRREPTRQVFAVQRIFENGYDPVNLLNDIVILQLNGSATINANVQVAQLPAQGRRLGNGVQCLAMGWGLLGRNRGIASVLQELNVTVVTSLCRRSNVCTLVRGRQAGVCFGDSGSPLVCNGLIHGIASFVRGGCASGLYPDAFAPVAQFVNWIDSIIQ
# T2: hCG (Homo sapiens, UniProt P08311)
# T2 construct: Neutrophils (1.4 billion) were isolated from whole blood obtained from a single healthy laboratory donor; from tissue; host or cells: neutrophils from whole blood of a single healthy donor
# T2 sequence (P08311 21-243 limits assumed): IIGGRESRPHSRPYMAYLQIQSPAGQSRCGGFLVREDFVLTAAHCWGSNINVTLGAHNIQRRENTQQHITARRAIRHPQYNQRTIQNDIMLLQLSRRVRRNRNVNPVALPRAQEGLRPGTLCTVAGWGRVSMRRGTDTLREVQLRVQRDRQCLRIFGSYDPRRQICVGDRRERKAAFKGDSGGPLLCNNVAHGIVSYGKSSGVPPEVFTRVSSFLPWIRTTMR
# T3: hLE (Homo sapiens, UniProt P08246)
# T3 construct: Neutrophils (1.4 billion) were isolated from whole blood obtained from a single healthy laboratory donor; from tissue; host or cells: neutrophils from whole blood of a single healthy donor
# T3 sequence (P08246 30-247 limits assumed): T1 sequence (P08246 30-247 limits assumed)
# T4: human leukocyte cathepsin G (hCG) (Homo sapiens, UniProt P08311)
# T4 construct: Neutrophils (1.4 billion) were isolated from whole blood obtained from a single healthy laboratory donor; from tissue; host or cells: neutrophils from whole blood of a single healthy donor
# T4 sequence (P08311 21-243 limits assumed): T2 sequence (P08311 21-243 limits assumed)
# T5: human leukocyte elastase (human, UniProt P08246 30-267)
# T5 construct: mature; Active enzyme purified from human neutrophils; also called hLE
# T5 sequence (looked up): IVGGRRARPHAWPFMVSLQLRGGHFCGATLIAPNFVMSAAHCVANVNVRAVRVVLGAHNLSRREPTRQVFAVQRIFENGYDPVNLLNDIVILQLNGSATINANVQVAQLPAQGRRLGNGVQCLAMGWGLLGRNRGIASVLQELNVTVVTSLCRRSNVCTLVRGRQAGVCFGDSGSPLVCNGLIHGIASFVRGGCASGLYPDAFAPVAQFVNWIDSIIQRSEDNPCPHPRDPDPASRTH
# T6: human leukocyte cathepsin G (human, UniProt P08311 21-244)
# T6 construct: mature; Active enzyme purified from human neutrophils; also called hCG; human Cathepsin G
# T6 sequence (looked up): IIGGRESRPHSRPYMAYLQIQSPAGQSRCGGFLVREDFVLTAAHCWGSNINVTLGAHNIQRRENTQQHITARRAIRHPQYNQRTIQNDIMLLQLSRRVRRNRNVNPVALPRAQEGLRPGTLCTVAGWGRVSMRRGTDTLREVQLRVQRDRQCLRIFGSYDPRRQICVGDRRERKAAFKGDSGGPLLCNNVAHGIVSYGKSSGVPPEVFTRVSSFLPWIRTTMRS
# T7: hLE (Homo sapiens, UniProt P08246)
# T7 sequence (P08246 30-267): T5 sequence (looked up)
# B1: peptide 18 (peptide)
# peptide: DILIFWSKDIGYSFT
# notes: Analog of peptide 6 (CRP62-76) with Glu62 replaced by Asp; also called pep18
# B2: CRP: plasma protein classified as a major acute phase reactant; five identical sub-units of 206 amino acids (pentraxin) (protein, listed as Homo sapiens)
# chain: ETDMSRKAFVFPKESDTSYVSLKAPLTKPLKAFTVCLHFYTELSSTRGYSIFSYATKRQDNEILIFWSKDIGYSFTVGGSEILFEVPEVTVAPVHICTSWESASGIVEFWVDGKPRVRKSLKKGYTVGAEASIILGQEQDSFGGNFEGSQSLVGDIGNVNMWDFVLSPDEINTIYLGGPFSPNVLNWRALKYEVQGEVFTKPQLWP
# modifications: pentamer
# How the values were obtained:
# [1] = molecular target: T1, human leukocyte elastase (hLE); assay: In vitro inhibition of hLE (cleavage of MeOSuc-AAPV-NA); format: biochemical
# hCG = molecular target: T2, hCG; assay: Resistance to proteolysis by hCG, degradation profile by RP-HPLC; format: in vitro ADME; conditions: PBS, 37° C., up to 12 hours
# Method: (§1) (vii) Degradation profiles of peptides by RP-HPLC: Several active peptide inhibitors were dissolved in calcium- and magnesium-free phosphate-buffered saline (PBS), 125 μg /250 μL, mixed with […] of hLE or hCG in 250 μL PBS and incubated at 37° C. Periodically (up to 12 hrs), 100 μL samples were removed from the reaction vessel. The samples were diluted with 150 μL of 0.1% TFA, frozen with liquid nitrogen, and stored at −20° C. prior to HPLC analysis.
# (§2) The stability of the peptide bonds in peptide 6 were evaluated by incubating the peptide with hLE and hCG and monitoring degradation profiles of the peptide by reverse-phase HPLC. Briefly, peptide 6 was dissolved in calcium- and magnesium-free phosphate-buffered saline (PBS), 50 μg/250 μL, mixed with 3 μg of hLE or hCG in 250 μL PBS and incubated at 37° C. Periodically, after 1,3,8, and 12 hrs incubation, 100 μL samples were removed from the reaction vessel. The samples were diluted with 150 μL of 0.1% TFA, frozen with liquid nitrogen, and stored at −20° C. prior to HPLC analysis.
# hLE [2] = molecular target: T3, hLE; assay: Resistance to proteolysis by hLE, degradation profile by RP-HPLC; format: in vitro ADME; conditions: PBS, 37° C., up to 12 hours
# Method: as §1, §2
# [3] = molecular target: T4, human leukocyte cathepsin G (hCG); assay: In vitro inhibition of hCG (cleavage of Suc-AAPF-NA); format: biochemical
# Outline: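 Purified hCG (1.2 μg, about 40 picomol) incubated with 600 μM Suc-AAPF-NA and CRP-derived peptides at 1–100 μM in 100 mM Hepes pH 7.4, 0.05% Brij-35, 5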
# human leukocyte elastase [4] = molecular target: T5, human leukocyte elastase; assay: hLE enzyme inhibition kinetics, cleavage of MeOSuc-AAPV-NA
# Method: (§3) (v) Inhibition experiments with hLE: Peptides were dissolved in 100 mM Hepes buffer pH 7.4 containing 0.1% Brij-35 with 10%. DMSO to yield 300 µM solutions, which were used to make further dilutions with the same buffer, and 80 µL aliquots were added in duplicates to 96-well plates. The substrate, 600 µM MeOSuc-AAPV-NA in the same buffer with 5% DMSO, was added to each well in addition to the blank wells, and the plate was placed in the plate reader equilibrated to 37 C (Dynateck MR-6000). Lyophilized aliquots of hLE were dissolved in 1600 µL of 100 mM Hepes buffer without DMSO, and 80 µL of the enzyme solution was added to the peptides and substrate to initiate the reaction. The kinetics program read the plate at 405 nm every 2 min for 20 min (with a 3 sec shaking period between readings), and plotted the results as well as the average of each duplicate. The final volume was 240 µL containing: 5% DMSO, 1–100 µM of peptide, 200 µM substrate, and 0.75 µg (~25 picomol) enzyme.
# (§4) The hLE inhibitory capability of CRP-derived peptides was evaluated by inhibiting the enzymatic cleavage of MeOSuc-AAPV-NA as described in Materials and Methods (section v).
# human leukocyte elastase [5] = molecular target: T5, human leukocyte elastase; assay: as above; remark: listed apart in the source
# Method: as §3, §4
# [6] = molecular target: T6, human leukocyte cathepsin G; assay: hCG enzyme inhibition kinetics, cleavage of Suc-AAPF-NA
# Method: as §3
# (§5) vi) Inhibition experiments with hCG: Similar conditions to hLE inhibition experiments were used except the substrate: 80 µL of 1.80 mM Suc-AAPF-NA. The enzyme was dissolved in 800 µL buffer, and the reaction was monitored every 6 min for 1 hour. The final volume was 240 µL containing: 5% DMSO, 1–100 µM peptide, 600 µM substrate, and 1.2 µg enzyme (about 40 picomol).
# [7] = molecular target: T6, human leukocyte cathepsin G; assay: as above; remark: listed apart in the source
# Method: as §3, §5
# [8] = test system: specific receptors on human neutrophils; conditions: in vitro; read-out: Kd, binding to receptors on human neutrophils; cited from earlier work
# hLE [9] = molecular target: T7, hLE; conditions: CRP as a whole protein; cited from earlier work
# [10] = molecular target: specific receptors on monocytes; conditions: in vitro; read-out: Kd, binding to receptors on monocytes; cited from earlier work
# [11] = peptide concentrations above 50 μM
molecule,measurement,setting,value
"CC[C@H](C)[C@H](NC(=O)[C@H](CC(=O)O)NC(=O)[C@H](CCCCN)NC(=O)[C@H](CO)NC(=O)[C@H](Cc1c[nH]c2ccccc12)NC(=O)[C@H](Cc1ccccc1)NC(=O)[C@@H](NC(=O)[C@H](CC(C)C)NC(=O)[C@@H](NC(=O)[C@@H](N)CCC(=O)O)[C@@H](C)CC)[C@@H](C)CC)C(=O)NCC(=O)N[C@@H](Cc1ccc(O)cc1)C(=O)N[C@@H](CO)C(=O)N[C@@H](Cc1ccccc1)C(=O)N[C@H](C(=O)O)[C@@H](C)O [Peptide 6, Glu-Ile-Leu-Ile-Phe-Trp-Ser-Lys-Asp-Ile-Gly-Tyr-Ser-Phe-Thr] (H-EILIFWSKDIGYSFT-OH; N-terminus and C-terminus assumed)",hLE inhibitory activity (in words),[1],submicromolar concentrations
same,Ki,"[1]; hLE Ki [μM], Table 1, substrate MeOSuc-AAPV-NA 200 μM, pH 7.4, 37 C",0.18 ± 0.03 µM
same,hLE inhibition at concentrations above 50 μM,[1]; [11],Total inhibition
same,cleavage products after incubation with hCG,hCG,no cleavage products were observed
same,cleavage products after incubation with hLE,hLE [2],no cleavage products were observed
same,hCG inhibitory activity (in words),[3],submicromolar concentrations
same,Ki,"[3]; hCG Ki [μM], Table 1, substrate Suc-AAPF-NA 600 μM, pH 7.4",0.25 ± 0.05 µM
same,hCG inhibition at concentrations above 50 μM,[3]; [11],total inhibition
B1,fold lower inhibitory activity against peptide 6,human leukocyte elastase [4],10 fold
same,Ki,human leukocyte elastase [5],2.2 µM
same,Ki,[6],2.6 µM
EILIFWSKDIGY (Synthetic; also called pep13) [peptide 13 (CRP62-73)],Ki,human leukocyte elastase [5],1.1 µM
same,Ki,[6],4 µM
ILFEVPEVTVAPVHI (Synthetic 15-mer) [peptide 10 (CRP82-96)],Ki,human leukocyte elastase [4],55 µM
same,Ki,[7],150 µM
EILIFWSKDI (Synthetic; also called pep14) [peptide 14 (CRP62-71)],Ki,human leukocyte elastase [5],6.7 µM
same,Ki,[6],6 µM
ILIFWSKDIGYSFT (Synthetic) [peptide 11 (CRP63-76)],fold decrease in hLE inhibition against peptide 6,human leukocyte elastase [4],~20 fold
same,Ki,human leukocyte elastase [5],4.5 µM
same,Ki,[6],15 µM
KRQDNEILIFWSKDI (Synthetic 15-mer) [peptide 5 (CRP57-71)],Ki,human leukocyte elastase [4],85 µM
same,Ki,[7],180 µM
B2,Kd,[8],~0.05 µM
same,inhibitory effect of whole CRP on hLE,hLE [9],no inhibitory effect
same,Kd,[10],~0.1 µM
